Data taken from publication PMC6021111, “Murine leukemia virus p12 tethers the capsid-containing pre-integration complex to chromatin by binding directly to host nucleosomes in mitosis” (PLoS Pathogens, 2018).

Tested on: GST-p12_WT
Assay: SILAC-MS of proteins enriched with GST-p12_WT relative to GST
Format: binding, Mo-MLV
Conditions: for SDs from the mean: log2(GST-p12_WT, Heavy/GST, Light)
Description: To test whether GST-p12 was acting like the p12 region of Gag, we used a global proteomic approach based on stable isotope labelling by amino acids in cell culture (SILAC)-mass spectrometry (MS) to look for host proteins that interact with GST-p12 [35, 36]. A schematic diagram of the workflow is illustrated in Fig 4A. Briefly, GST, GST-p12_mut14 and GST-p12_WT were transiently-expressed in 293T cells cultured in light (R0/K0), medium (R6/K4) and heavy (R10/K8) SILAC media, respectively. Next, lysates of nocodazole treated transfected cells were prepared, normalised and used for parallel pull-down assays with glutathione-sepharose beads. The eluates from the beads were then pooled in a 1:1:1 ratio and subjected to LC-MS/MS analysis. The experiment was performed using biological replicates to test reproducibility of the mass-spec hits. The pull-down assays for this experiment were performed using mitotic cell lysates to facilitate identification of any potential chromatin interactions that were previously missed.
After removal of obvious contaminants (e.g. keratin) and non-quantified hits, 948 and 879 proteins were identified in replicates 1 and 2 (R1 and R2) of the experiment respectively (the false discovery rate (FDR) was set at 5%). To select proteins enriched in the heavy-labelled (H) GST-p12_WT sample relative to the light-labelled (L) GST sample, we compared the log2(H/L) silac ratios of the mass-spectrometry hits. When plotted as a frequency distribution, the log2(H/L) ratios of each replicate fitted well to a normal distribution curve (R^2 ≥ 0.98), allowing the mean and standard deviation to be accurately estimated (Fig 4B). In this experiment, contaminants/non-specifically bound cellular proteins were assumed to cluster around the mean of the distribution. […] Twenty one such proteins were identified in R1 and 22 identified in R2 (Fig 4B Venn diagram). […] These proteins were then ranked based on normalised abundance in the group. In mass-spectrometry analysis, larger proteins are in general assigned higher scores. Therefore, to control for protein size, we divided the number of peptide spectral matches identified for each protein with its length and then normalised the values across the group (Fig 4C and 4D). When ranked this way, the clathrin heavy chain (CLTC), clathrin interactor 1 (CLINT1) and NEDD4-like E3 ubiquitin ligase (WWP2) were identified as the top three hits. […] The function of clathrin in MLV infection is unclear. […] Thus, clathrin binding may be relevant to the early stages of MLV replication and should be investigated further.
For SILAC-MS experiments, 293T cells were grown is media containing light (R0K0, ^12C-Arginine and ^12C-Lysine), medium (R6K4, ^13C-Arginine and Lysine-4,4,5,5-d4) or heavy (R10K8, ^13C+^15N-Arginine and ^13C+^15N-Lysine) versions of L-Arginine and L-Lysine amino acids (Pierce) for a minimum of 6 doublings before transient expression of GST-p12 proteins. After performing the glutathione-sepharose pull-down assays equivalent volumes of the beads eluates were pooled and submitted to the Bristol University Proteomics Facility for RP nano-LC-MS/MS analysis. This analysis was performed on an LTQ-Orbitrap Velos mass spectrometer in line with a Dionex Ultimate 3000 nanoHPLC system as described in [53].
Supplementary file ppat.1007117.s005.xlsx: S1 Table Results from the first SILAC-MS analysis. GST, Mo-MLV GST-p12_mut14 or GST-p12_WT were transiently-expressed in 293T cells cultured in light (R0/K0), medium (R6/K4) and heavy (R10/K8) SILAC media, respectively. Mitotic cell lysates were subsequently used for glutathione-sepharose bead pull-down assays. Bead eluates were pooled in a 1:1:1 ratio and then analysed by LC-MS/MS. […] (XLSX) Click here for additional data file.

| Molecule | Normalised (PSMs/Length) (Replicate 1) | PSMs (Replicate 1) | PSMs/Length (Replicate 1) | Normalised (PSMs/Length) (Replicate 2) | PSMs (Replicate 2) | PSMs/Length (Replicate 2) | SDs from the mean (Replicate 2) |
| --- | --- | --- | --- | --- | --- | --- | --- |
| Clathrin interactor 1: Q14677 (protein) MLNMWKVRELVDKATNVVMNYSEIESKVREATNDDPWGPSGQLMGEIAKATFMYEQFPELMNMLWSRMLKDNKKNWRRVYKSLLLLAYLIRNGSERVVTSAREHIYDLRSLENYHFVDEHGKDQGINIRQKVKELVEFAQDDDRLREERKKAKKNKDKYVGVSSDSVGGFRYSERYDPEPKSKWDEEWDKNKSAFPFSDKLGELSDKIGSTIDDTISKFRRKDREDSPERCSDSDEEKKARRGRSPKGEFKDEEETVTTKHIHITQATETTTTRHKRTANPSKTIDLGAAAHYTGDKASPDQNASTHTPQSSVKTSVPSSKSSGDLVDLFDGTSQSTGGSADLFGGFADFGSAAASGSFPSQVTATSGNGDFGDWSAFNQAPSGPVASSGEFFGSASQPAVELVSGSQSALGPPPAASNSSDLFDLMGSSQATMTSSQSMNFSMMSTNTVGLGLPMSRSQNTDMVQKSVSKTLPSTWSDPSVNISLDNLLPGMQPSKPQQPSLNTMIQQQNMQQPMNVMTQSFGAVNLSSPSNMLPVRPQTNALIGGPMPMSMPNVMTGTMGMAPLGNTPMMNQSMMGMNMNIGMSAAGMGLTGTMGMGMPNIAMTSGTVQPKQDAFANFANFSK | 26.4693 | 18 | 0.0288 | 22.9214 | 16 | 0.0256 | 13.1531 |
| Clathrin light chain A: P09496 (protein) MAELDPFGAPAGAPGGPALGNGVAGAGEEDPAAAFLAQQESEIAGIENDEAFAILDGGAPGPQPHGEPPGGPDAVDGVMNGEYYQESNGPTDSYAAISQVDRLQSEPESIRKWREEQMERLEALDANSRKQEAEWKEKAIKELEEWYARQDEQLQKTKANNRVADEAFYKQPFADVIGYVTNINHPCYSLEQAAEEAFVNDIDESSPGTEWERVARLCDFNPKSSKQAKDVSRMRSVLISLKQAPLVH | 7.412 | 2 | 0.008065 | 7.2207 | 2 | 0.008065 | 7.68 |
